Data taken from the supplement of paper PMC9233669.
Variants at the floor of the assay were thinned out.

Tests used:
biotinyl-Phe-oxazolone = test: self-aminoacylation, catalytic enhancement (BFO) (fold over background); higher = more active; k-Seq, kA / k0A0; sequences stand for … in GGGAAUGGAUCCACAUCUACGAAUUC…UUCACUGCAGACUUGACGAAGCUG
Outline: (§1)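 Each biotinyl-aminoacyl-oxazolone, at 2–1250 μM, was incubated with mutagenized RNA pools (0.43 μM) carrying a 21-nt variable region. The 50 μL reactions contained HEPES/NaCl/KCl/MgCl2/CaCl2 buffer with 5% acetonitrile at pH 6.9–7.0 and ran for 90 minutes at room temperature. After streptavidin capture, RNA was measured by qPCR in triplicate and by Illumina sequencing, and catalytic enhancement was calculated as median kA over the uncatalyzed rate from a pseudo-first-order fit of per-sequence fraction reacted.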

biotinyl-Trp-oxazolone = test: self-aminoacylation, catalytic enhancement (BWO) (fold over background); higher = more active; k-Seq, kA / k0A0; sequences stand for … in GGGAAUGGAUCCACAUCUACGAAUUC…UUCACUGCAGACUUGACGAAGCUG
Outline: as §1

biotinyl-Met-oxazolone = test: self-aminoacylation, catalytic enhancement (BMO) (fold over background); higher = more active; k-Seq, kA / k0A0; sequences stand for … in GGGAAUGGAUCCACAUCUACGAAUUC…UUCACUGCAGACUUGACGAAGCUG
Outline: as §1

biotinyl-Ile-oxazolone = test: self-aminoacylation, catalytic enhancement (BIO) (fold over background); higher = more active; k-Seq, kA / k0A0; sequences stand for … in GGGAAUGGAUCCACAUCUACGAAUUC…UUCACUGCAGACUUGACGAAGCUG
Outline: as §1

biotinyl-Leu-oxazolone = test: self-aminoacylation, catalytic enhancement (BLO) (fold over background); higher = more active; k-Seq, kA / k0A0; sequences stand for … in GGGAAUGGAUCCACAUCUACGAAUUC…UUCACUGCAGACUUGACGAAGCUG
Outline: as §1

biotinyl-Val-oxazolone = test: self-aminoacylation, catalytic enhancement (BVO) (fold over background); higher = more active; k-Seq, kA / k0A0; sequences stand for … in GGGAAUGGAUCCACAUCUACGAAUUC…UUCACUGCAGACUUGACGAAGCUG
Outline: as §1

Sequence	self-aminoacylation (biotinyl-Phe-oxazolone)	self-aminoacylation (biotinyl-Trp-oxazolone)	self-aminoacylation (biotinyl-Met-oxazolone)	self-aminoacylation (biotinyl-Ile-oxazolone)	self-aminoacylation (biotinyl-Leu-oxazolone)	self-aminoacylation (biotinyl-Val-oxazolone)
AAGUUUGCUAAUAGGCGCAGG [Fam3.1 aminoacylation ribozyme variant]	0.997	1.18	0.67	0.831	0.907	0.965
AAGUUUGCUAAUAGGCGUAAG [Fam3.1 aminoacylation ribozyme variant]	0.828	0.664	0.735	0.669	0.66	0.735
AAGUUUGCUAAUAGUAACAAG [Fam3.1 aminoacylation ribozyme variant]	1.58	1.41	1.52	1.19	1.12	1.1
AAGUUUGCUAAUAGUAGCAAC [Fam3.1 aminoacylation ribozyme variant]	1.08	0.859	0.942	1.09	0.631	1.15
AAGUUUGCUAAUAGUAGCAAU [Fam3.1 aminoacylation ribozyme variant]	1.15	1.78	1.57	1.32	1.11	1.32
AAGUUUGCUAAUAGUCAUAAG [Fam3.1 aminoacylation ribozyme variant]	17.9	5.59	1.27	1.44	1.15	1.25
AAGUUUGCUAAUAGUCCCAAC [Fam3.1 aminoacylation ribozyme variant]	1.04	0.629	0.505	0.639	0.585	0.643
AAGUUUGCUAAUAGUCCCAAU [Fam3.1 aminoacylation ribozyme variant]	1.36	1.28	0.987	1.3	1	0.912
AAGUUUGCUAAUAGUCGAUAG [Fam3.1 aminoacylation ribozyme variant]	1.42	0.829	0.781	0.824	0.805	0.846
AAGUUUGCUAAUAGUCGCAAC [Fam3.1 aminoacylation ribozyme variant]	1.28	1.06	0.904	0.972	0.816	0.935
AAGUUUGCUAAUAGUCGCAGU [Fam3.1 aminoacylation ribozyme variant]	8.27	3.14	1.91	1.33	1.66	1.34
AAGUUUGCUAAUAGUCGCAUC [Fam3.1 aminoacylation ribozyme variant]	1.53	0.681	0.649	0.778	0.61	0.706
AAGUUUGCUAAUAGUCGCAUG [Fam3.1 aminoacylation ribozyme variant]	1.47	0.976	0.93	1.03	0.932	0.916
AAGUUUGCUAAUAGUCGCGAG [Fam3.1 aminoacylation ribozyme variant]	2.01	2	1.33	1.33	1.29	1.2
AAGUUUGCUAAUAGUCGCUAU [Fam3.1 aminoacylation ribozyme variant]	1.39	1.08	1.26	1.31	1.06	0.984
AAGUUUGCUAAUAGUCGGAAU [Fam3.1 aminoacylation ribozyme variant]	1.54	1.18	1.5	1.37	1.41	1.41
AAGUUUGCUAAUAGUCGUAAG [Fam3.1 aminoacylation ribozyme variant]	33	8.22	1.34	1.19	0.914	1.05
AAGUUUGCUAAUAGUCGUAAU [Fam3.1 aminoacylation ribozyme variant]	1.24	1.13	1.19	1.19	1.07	1.23
AAGUUUGCUAAUAGUGGCACG [Fam3.1 aminoacylation ribozyme variant]	0.682	0.733	0.636	0.684	0.622	0.689
AAGUUUGCUAAUCGCCGCAAG [Fam3.1 aminoacylation ribozyme variant]	2.82	4.38	1.56	1.97	1.54	1.47
AAGUUUGCUAAUCGUCGGAAG [Fam3.1 aminoacylation ribozyme variant]	1.64	1.42	0.704	0.972	0.799	0.869
AAGUUUGCUAAUCUUCGCAAG [Fam3.1 aminoacylation ribozyme variant]	0.816	1.19	1.07	1.11	0.95	1.07
AAGUUUGCUAAUGGUCGCCAG [Fam3.1 aminoacylation ribozyme variant]	5.81	1.52	1.09	1.1	1.11	0.896
AAGUUUGCUAAUUCUCGCAAG [Fam3.1 aminoacylation ribozyme variant]	0.747	2.64	1.06	1.26	1.08	0.999
AAGUUUGCUAAUUGUCGCAGG [Fam3.1 aminoacylation ribozyme variant]	2.72	1.34	1.43	1.19	1.45	1.3
AAGUUUGCUAAUUGUCGCAUG [Fam3.1 aminoacylation ribozyme variant]	1.11	1.49	1.18	0.982	1.32	1.07
